According to patent US20220195023A1:
Numbering of substitutions follows the chain as printed. Where “and” joins values, the source holds several entries; their conditions need not be identical. Equal entries are not always repeated.

B1: AB-000317 (antibody, V domains shown)
VH: QMQLVESGGGVVQPGRSLRLSCTASGFTFSTYAMHWVRQSPGQGLQWVAVISYHSTNKYYEDSVRGRFTISRDNSKNTLYLQMNSLRAEDTAVYYCARDGYSSSFFDFWGQGTLVTVSS
VL: DIQMTQSPSTLSASVGDRVAITCRASQSISRWLAWYQQQPGKAPKLLMSGASVLESGVPSRFSGSGSGTEFTLTISSLQPDDFATYYCQHYNSYFVTFGQGTKVEIK
B2: AB-007029 (antibody, V domains shown)
VH: B1 VH with M2V
VL: B1 VL
B3: AB-007059 (antibody, V domains shown)
VH: B1 VH with S104T
VL: B1 VL
B4: AB-007060 (antibody, V domains shown)
VH: B1 VH with F105Y
VL: B1 VL
B5: AB-007061 (antibody, V domains shown)
VH: B1 VH
VL: B1 VL with S30D
B6: AB-007062 (antibody, V domains shown)
VH: B1 VH
VL: B1 VL with R31S
B7: AB-007063 (antibody, V domains shown)
VH: B1 VH
VL: B1 VL with S49A
B8: AB-007064 (antibody, V domains shown)
VH: B1 VH
VL: B1 VL with S49T
B9: AB-007065 (antibody, V domains shown)
VH: B1 VH
VL: B1 VL with G50K
B10: AB-007066 (antibody, V domains shown)
VH: B1 VH
VL: B1 VL with G50Q
B11: AB-007067 (antibody, V domains shown)
VH: B1 VH
VL: B1 VL with G50S
B12: AB-007068 (antibody, V domains shown)
VH: B1 VH
VL: B1 VL with G50L
B13: AB-007030 (antibody, V domains shown)
VH: B1 VH with Q46E, E61A
VL: B1 VL
B14: AB-007069 (antibody, V domains shown)
VH: B1 VH
VL: B1 VL with G50V
B15: AB-007070 (antibody, V domains shown)
VH: B1 VH
VL: B1 VL with G50A
B16: AB-007071 (antibody, V domains shown)
VH: B1 VH
VL: B1 VL with V53S
B17: AB-007072 (antibody, V domains shown)
VH: B1 VH
VL: B1 VL with V53N
B18: AB-007073 (antibody, V domains shown)
VH: B1 VH
VL: B1 VL with Y94H
B19: AB-007074 (antibody, V domains shown)
VH: B1 VH with T23A, S40A
VL: B1 VL with A20T, F95Y
B20: AB-007045 (antibody, V domains shown)
VH: B1 VH with G100A
VL: B1 VL
B21: AB-007048 (antibody, V domains shown)
VH: B1 VH with A33S
VL: B1 VL
B22: AB-007050 (antibody, V domains shown)
VH: B1 VH with Y53Q
VL: B1 VL
B23: AB-007053 (antibody, V domains shown)
VH: B1 VH with N57Q
VL: B1 VL
B24: AB-007055 (antibody, V domains shown)
VH: B1 VH with S102T
VL: B1 VL
B25: AB-007056 (antibody, V domains shown)
VH: B1 VH with S102Q
VL: B1 VL
B26: AB-007058 (antibody, V domains shown)
VH: B1 VH with S103T
VL: B1 VL

molecular target: (NANP)6 (Plasmodium falciparum); experiment: BLI, target on sensor

| Binder | Kd |
| --- | --- |
| B1 | 0.714 nM and 1.38 nM |
| B2 | 0.803 nM |
| B3 | 1.41 nM |
| B4 | 0.898 nM |
| B5 | 0.385 nM |
| B6 | 0.607 nM |
| B7 | 1.64 nM |
| B8 | 0.434 nM |
| B9 | 0.729 nM |
| B10 | 0.315 nM |
| B11 | 0.647 nM |
| B12 | 1.59 nM |
| B13 | 0.526 nM |
| B14 | 1.33 nM |
| B15 | 0.834 nM |
| B16 | 1.66 nM |
| B17 | 1.65 nM |
| B18 | 0.627 nM |
| B19 | 0.601 nM |
| B20 | 0.703 nM |
| B21 | 1.46 nM |
| B22 | 0.856 nM |
| B23 | 1.37 nM |
| B24 | 1.61 nM |
| B25 | 0.88 nM |
| B26 | 1.14 nM |

molecular target: (NPNA)3 (Plasmodium falciparum); experiment: BLI, target on sensor

| Binder | Kd |
| --- | --- |
| B1 | 0.18 nM and 0.8 nM |
| B2 | 0.166 nM |
| B3 | 0.478 nM |
| B4 | 1.14 nM |
| B5 | 0.00376 nM |
| B6 | 0.00796 nM |
| B7 | 0.691 nM |
| B8 | 0.453 nM |
| B9 | 2.23 nM |
| B10 | 3.58 nM |
| B11 | 2.02 nM |
| B12 | 0.703 nM |
| B13 | 0.192 nM |
| B14 | 1.43 nM |
| B15 | 0.68 nM |
| B16 | 0.694 nM |
| B17 | 0.842 nM |
| B18 | 0.326 nM |
| B19 | 0.206 nM |
| B20 | 0.734 nM |
| B21 | 3.33 nM |
| B22 | 1.05 nM |
| B23 | 0.552 nM |
| B24 | 3.62 nM |
| B25 | 0.263 nM |
| B26 | 1.3 nM |

molecular target: (NVDP)3(NANP)2 (Plasmodium falciparum); experiment: BLI, target on sensor

| Binder | Kd |
| --- | --- |
| B1 | 4.27 nM and 3.73 nM |
| B2 | 6.67 nM |
| B3 | 19.8 nM |
| B4 | 45.2 nM |
| B5 | 5.68 nM |
| B6 | 13.6 nM |
| B7 | 9.73 nM |
| B8 | 33.7 nM |
| B9 | 9.71 nM |
| B10 | 22.4 nM |
| B11 | 34 nM |
| B12 | 17.1 nM |
| B13 | 4.03 nM |
| B14 | 28.7 nM |
| B15 | 14.4 nM |
| B16 | 11 nM |
| B17 | 14.5 nM |
| B18 | 18.1 nM |
| B19 | 7.96 nM |
| B20 | 43.9 nM |
| B21 | 34.6 nM |
| B22 | 33.4 nM |
| B23 | 25.8 nM |
| B25 | 24.9 nM |
| B26 | 42.2 nM |

molecular target: NANPNVDP (Plasmodium falciparum); experiment: BLI, target on sensor

| Binder | Kd |
| --- | --- |
| B1 | 9.2 nM and 12.7 nM |
| B2 | 13.2 nM |
| B3 | 25.8 nM |
| B5 | 12.3 nM |
| B6 | 22.4 nM |
| B7 | 13.1 nM |
| B8 | 36.7 nM |
| B9 | 15.8 nM |
| B12 | 21.8 nM |
| B13 | 7.92 nM |
| B14 | 26.6 nM |
| B15 | 19.8 nM |
| B16 | 12.9 nM |
| B17 | 16.9 nM |
| B18 | 20.3 nM |
| B19 | 10.2 nM |
| B20 | 28.2 nM |
| B23 | 24.7 nM |
| B25 | 29.6 nM |

molecular target: … (Plasmodium falciparum); experiment: BLI, target on sensor

| Binder | Kd |
| --- | --- |
| B1 | 2.76 nM and 2.51 nM |
| B2 | 5.62 nM |
| B3 | 17.4 nM |
| B4 | 43.2 nM |
| B5 | 4.11 nM |
| B6 | 14.3 nM |
| B7 | 7.03 nM |
| B8 | 30.9 nM |
| B9 | 9.73 nM |
| B10 | 26.6 nM |
| B11 | 36.1 nM |
| B12 | 18.3 nM |
| B13 | 2.84 nM |
| B14 | 27.5 nM |
| B15 | 15.5 nM |
| B16 | 10.4 nM |
| B17 | 15.5 nM |
| B18 | 17.9 nM |
| B19 | 6.05 nM |
| B20 | 43.6 nM |
| B21 | 28.6 nM |
| B22 | 37.4 nM |
| B23 | 23.5 nM |
| B25 | 23.6 nM |
| B26 | 46.3 nM |

molecular target: (NANP)6 (Plasmodium falciparum); experiment: SPR, antibody on chip

| Binder | Kd |
| --- | --- |
| B1 | 1.75 nM and 0.817 nM |
| B2 | 0.177 nM |
| B3 | 0.266 nM |
| B4 | 1.21 nM |
| B5 | 0.0657 nM |
| B6 | 0.338 nM |
| B7 | 0.194 nM |
| B8 | 0.192 nM |
| B9 | 0.238 nM |
| B10 | 0.979 nM |
| B11 | 0.244 nM |
| B12 | 1.56 nM |
| B13 | 0.0537 nM |
| B14 | 1.85 nM |
| B15 | 0.0786 nM |
| B16 | 0.433 nM |
| B17 | 0.0376 nM |
| B18 | 0.871 nM |
| B19 | 0.665 nM |
| B20 | 2.35 nM |
| B21 | 1 nM |
| B22 | 0.54 nM |
| B23 | 1.42 nM |
| B24 | 0.403 nM |
| B25 | 0.104 nM |
| B26 | 0.137 nM |

molecular target: (NPNA)3 (Plasmodium falciparum); experiment: SPR, antibody on chip

| Binder | Kd |
| --- | --- |
| B1 | 4.91 nM and 11.2 nM |
| B2 | 11.3 nM |
| B3 | 174 nM |
| B4 | 212 nM |
| B5 | 6.69 nM |
| B6 | 10 nM |
| B7 | 14.1 nM |
| B8 | 152 nM |
| B9 | 125 nM |
| B10 | 357 nM |
| B11 | 207 nM |
| B12 | 111 nM |
| B13 | 6.88 nM |
| B14 | 204 nM |
| B15 | 80.3 nM |
| B16 | 10.2 nM |
| B17 | 73.9 nM |
| B18 | 72 nM |
| B19 | 8.94 nM |
| B20 | 246 nM |
| B21 | 1550 nM |
| B22 | 271 nM |
| B23 | 112 nM |
| B24 | 1470 nM |
| B25 | 62 nM |
| B26 | 339 nM |

molecular target: (NVDP)3(NANP)2 (Plasmodium falciparum); experiment: SPR, antibody on chip

| Binder | Kd |
| --- | --- |
| B1 | 2590 nM and 2910 nM |
| B2 | 4790 nM |
| B3 | 17500 nM |
| B5 | 4000 nM |
| B6 | 6250 nM |
| B7 | 3890 nM |
| B9 | 12600 nM |
| B12 | 32400 nM |
| B13 | 2570 nM |
| B15 | 11600 nM |
| B16 | 4870 nM |
| B17 | 13800 nM |
| B18 | 19500 nM |
| B19 | 3920 nM |

molecular target: … (Plasmodium falciparum); experiment: SPR, antibody on chip

| Binder | Kd |
| --- | --- |
| B1 | 12900 nM and 15800 nM |
| B2 | 26200 nM |
| B5 | 14600 nM |
| B6 | 25000 nM |
| B7 | 12200 nM |
| B13 | 6520 nM |
| B15 | 65300 nM |
| B16 | 23800 nM |
| B17 | 38700 nM |
| B18 | 16500 nM |
| B19 | 12800 nM |
